Laboratory results reported in FireProtDB (doi:10.1021/bi034721x).
Where “and” joins values, the source holds several entries; their conditions need not be identical. Equal values may be shown once.

Conditions: Rattus norvegicus; pH 7.4; Thermal; DSC; sodium phosphate 10 mM; NaCl 0.20 M; whole UniProt chain shown

B1: Parvalbumin alpha wild type, P02625 (protein)
chain: MSMTDLLSAEDIKKAIGAFTAADSFDHKKFFQMVGLKKKSADDVKKVFHILDKDKSGFIEEDELGSILKGFSSDARDLSAKETKTLMAAGDKDGDGKIGVEEFSTLVAES
For B1, which “unfolding enthalpy (calorimetric)” value is on record?
The value was 76 kcal/mol and 72 kcal/mol and 52 kcal/mol.
